In IntAct's records for PubMed 22178926:

B1: Integrin beta-3 (Homo sapiens), P05106 (parent)
chain: MRARPRPRPLWATVLALGALAGVGVGGPNICTTRGVSSCQQCLAVSPMCAWCSDEALPLGSPRCDLKENLLKDNCAPESIEFPVSEARVLEDRPLSDKGSGDSSQVTQVSPQRIALRLRPDDSKNFSIQVRQVEDYPVDIYYLMDLSYSMKDDLWSIQNLGTKLATQMRKLTSNLRIGFGAFVDKPVSPYMYISPPEALENPCYDMKTTCLPMFGYKHVLTLTDQVTRFNEEVKKQSVSRNRDAPEGGFDAIMQATVCDEKIGWRNDASHLLVFTTDAKTHIALDGRLAGIVQPNDGQCHVGSDNHYSASTTMDYPSLGLMTEKLSQKNINLIFAVTENVVNLYQNYSELIPGTTVGVLSMDSSNVLQLIVDAYGKIRSKVELEVRDLPEELSLSFNATCLNNEVIPGLKSCMGLKIGDTVSFSIEAKVRGCPQEKEKSFTIKPVGFKDSLIVQVTFDCDCACQAQAEPNSHRCNNGNGTFECGVCRCGPGWLGSQCECSEEDYRPSQQDECSPREGQPVCSQRGECLCGQCVCHSSDFGKITGKYCECDDFSCVRYKGEMCSGHGQCSCGDCLCDSDWTGYYCNCTTRTDTCMSSNGLLCSGRGKCECGSCVCIQPGSYGDTCEKCPTCPDACTFKKECVECKKFDRGALHDENTCNRYCRDEIESVKELKDTGKDAVNCTYKNEDDCVVRFQYYEDSSGKSILYVVEEPECPKGPDILVVLLSVMGAILLIGLAALLIWKLLITIHDRKEFAKFEEERARAKWDTANNPLYKEATSTFTNITYRGT

Variants of: B1
Details: with ITGA2B

Row | effect of a mutation on the interaction | Variant
1 | disrupting interaction strength | K742C
2 | disrupting interaction strength | K742E

The remaining lines, values behind:

Row | Variant | effect of a mutation on the interaction
3 | K742S | disrupting interaction strength
4 | K742L | disrupting interaction strength
5 | K742A | disrupting interaction strength
